Blank lines part the entries; values can stand above or below the molecule they belong to.
Legend:
Assay type in all cases: cell-based
MDA MB 231 cells [1] = assay: Cell migration, modified Boyden chamber method; settings: 4 μM peptide, 2 days of treatment, 18 hr migration, FIG. 3B
Experimental: MDA MB 231 cells were transfected with pCK-flag (control), FOG2-wt (wild type) and FOG2 mutants having modified zinc finger domain (FOG2-ZF-5-m and FOG2-ZF-6-m). The cell migration was then analyzed using the modified Boyden chamber method (Albini A et al., Cancer Res 1987 47:3239-45). Following the transfection for 24 hr, MDA MB 231 cells (1×10^5) were suspended in a serum-free medium and seeded in triplicate in the upper part of BD chamber ([…] pore size). The lower part was filled with the serum-free medium. Following the incubation at 37° C. for 18 hr, non-migrating cells positioned at the upper surface of filters were cleaned with a cotton swab. The migrating cells passing through the lower surface of filters were fixed with 70% ethanol and treated with the Giemsa staining solution for 50 min. Then, the cells were rinsed with water and observed under a microscope. The cell migration rate was determined by counting the number of cells present in randomly-selected six sections and the migration range was expressed as the average number of cells per a microscopic field.
MDA MB 231 cells were incubated with 4 μM Mock (control, DMSO), 4 μM ZF-5-wt-24, 4 μM ZF-5-m-24, 4 μM ZF-5-wt-20 or 4 μM ZF-3-wt-21. After treatment, the cell migration was analyzed using the modified Boyden chamber method (Albini A et al., Cancer Res 1987 47:3239-45). After 2 days of treatment, MDA MB 231 cells (1×10^5) were suspended in the serum free medium and seeded in triplicate in the upper part of BD chamber ([…] pore size). The lower part was filled with the serum free medium. Following the incubation at 37° C. for 18 hr, non-migrating cells positioned at the upper surface of filters were cleaned with the cotton swab. The migrating cells passing through the lower side surface of filters were fixed with 70% ethanol and stained using the Giemsa stain method. The cell migration rate was determined by counting the number of cells present in randomly-selected six sections and the migration range was expressed as the average number of cells per a microscopic field.

PI3K [2] = target: T1, PI3K (Homo sapiens, UniProt P27986); assay: IGF-1-induced PI3K activation in Hep3B cells incubated with peptides; set-up: The cell lysates were immunoprecipitated with p85α (sc-1637, Santa Cruz) and Protein G-Sepharose beads; endogenous in cells; host or cells: Hep3B; settings: 4 μM peptides, 48 hr, FIG. 2C
Experimental: (§1) For measurement of PI3K activity, 10 μl of sonicated PIP2 (1 μg/μl, Calbiochem), 10 μl of 100 mM MgCl2 and 1 μl of [-^32P]ATP (500 μCi/ml) were added to the kinase buffer (10 mM Tris-HCl (pH 7.4), 150 mM NaCl, 1 mM Na3VO4, 10 mM ZnCl2) and incubated at 37° C. for 30 min. After incubation, 20 μl of 6 N HCl was added to stop the reaction and PIP2 was extracted by treatment with 200 μl of methanol:chloroform (1:1) solution. The amount of radioactively labeled PIP2 in the extract was measured using a scintillator counter.
In addition, Hep3B liver cancer cells were incubated with 4 μM peptides for 48 hr and the PI3K activity was analyzed.

PI3K [3] = target: T1, PI3K; assay: PI3K activity in MDA MB 231 cells incubated with zinc finger domain peptides; set-up: The cell lysates were immunoprecipitated with p85α (sc-1637, Santa Cruz) and Protein G-Sepharose beads; endogenous in cells
Experimental: as §1
For peptide treatment, cells were trypsinized to detach them from a culture dish and their aliquot (2×10^5 cells) was incubated with 4 μM peptides in 100 mm dishes. The control was incubated with Mock (DMSO).

MDA MB 231 cells [4] = assay: Cell proliferation MTT assay; settings: synthesized peptide, increasing concentration, FIG. 6B
Experimental: Because the PI3K activation is critical in cell growth, the cell proliferation was analyzed to investigate the inhibitory effect of the FOG2 zinc finger domain using the MTT assay.
MDA MB 231 cells were seeded in a 96-well plate, and transfected with 100 ng DNA of pCKflag, FOG2-wt, FOG2-ZF-5-m or FOG2-ZF-6-m using Lipofectamine 2000. On 3 days post-transfection, the MTT assay was performed.
MDA MB 231 cells (2×10^3 cells) were seeded in a 96-well plate and treated with 4 μM each peptide for 3 days. After the treatment, 50 μl of MTT solution (2 mg/ml) was added to each well, incubated at 37° C. for 1 hr. Then, 150 μl of DMSO was added to each well and the absorbance value of each well was measured at 590 nm using a microplate reader.

MDA MB 231 cells [5] = assay: Apoptosis by FACS analysis (propidium iodide) in MDA MB 231 cells; settings: transfected with 1 μg FOG2 fragment, 2 days, FIG. 7A
Experimental: PI3K inactivation has been reported to cause cancer cell apoptosis, and FOG2 is known to inhibit the PI3K activity. To test whether PI3K inactivation by overexpressing FOG2 induces apoptosis, MDA MB 231 cells overexpressed FOG2 were analyzed with FACS.
MDA MB 231 cells were incubated with Full-FOG2[1-1151], FOG2[1-412], FOG2[413-789] or FOG2[802-1151]. The cells (5×10^4) were seeded in a 12-well plate and transfected with 1 μg of Full-FOG2[1-1151], FOG2[1-412], FOG2[413-789] or FOG2[802-1151] using Lipofectamine 2000. The cells were incubated at 37° C. for 2 days and subject to FACS analysis.
The cells were incubated with FOG2 fragments and fixed with 70% ethanol for 16 hr. The fixed cells were stained using RNase (5 mg/ml) and propidium iodide ([…]). The amount of DNA in stained cells was analyzed with Cell Quest program of FACS caliber (Becton Dickinson).

T1 sequence (P27986 whole entry): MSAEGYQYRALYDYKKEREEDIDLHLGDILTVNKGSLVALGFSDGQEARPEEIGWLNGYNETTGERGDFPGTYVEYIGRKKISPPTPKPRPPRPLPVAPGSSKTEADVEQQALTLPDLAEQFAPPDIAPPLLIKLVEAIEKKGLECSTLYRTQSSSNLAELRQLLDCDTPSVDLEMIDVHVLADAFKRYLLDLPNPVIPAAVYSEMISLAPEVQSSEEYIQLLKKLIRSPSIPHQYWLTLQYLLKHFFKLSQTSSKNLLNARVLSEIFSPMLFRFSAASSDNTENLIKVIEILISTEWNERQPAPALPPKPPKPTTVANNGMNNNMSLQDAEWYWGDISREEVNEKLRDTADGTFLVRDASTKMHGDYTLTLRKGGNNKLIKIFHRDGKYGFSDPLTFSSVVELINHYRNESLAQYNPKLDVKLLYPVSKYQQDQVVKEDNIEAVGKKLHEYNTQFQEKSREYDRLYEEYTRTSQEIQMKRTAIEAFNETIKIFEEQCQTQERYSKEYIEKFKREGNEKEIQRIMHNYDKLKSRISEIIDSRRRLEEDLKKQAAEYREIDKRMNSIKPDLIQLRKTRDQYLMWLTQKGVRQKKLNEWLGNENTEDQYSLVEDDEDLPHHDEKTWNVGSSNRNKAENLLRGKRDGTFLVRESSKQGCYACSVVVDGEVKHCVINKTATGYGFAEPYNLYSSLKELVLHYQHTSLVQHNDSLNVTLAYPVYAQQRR

B1: FOG2[1-412]: Truncated FOG2 mutant in pCK-flag vector, residues 1-412 (protein, UniProt Q8WW38 1-412, looked up, fragment)
chain: MSRRKQSKPRQIKRPLEDAIEDEEEECPSEETDIISKGDFPLEESFSTEFGPENLSCEEVEYFCNKGDDEGIQETAESDGDTQSEKPGQPGVETDDWDGPGELEVFQKDGERKIQSRQQLPVGTTWGPFPGKMDLNNNSLKTKAQVPMVLTAGPKWLLDVTWQGVEDNKNNCIVYSKGGQLWCTTTKAISEGEELIAFVVDFDSRLQAASQMTLTEGMYPARLLDSIQLLPQQAAMASILPTAIVNKDIFPCKSCGIWYRSERNLQAHLMYYCSGRQREAAPVSEENEDSAHQISSLCPFPQCTKSFSNARALEMHLNSHSGVKMEEFLPPGASLKCTVCSYTADSVINFHQHLFSHLTQAAFRCNHCHFGFQTQRELLQHQELHVPSGKLPRESDMEHSPSATEDSLQPAT
modifications: FLAG tag
number of apoptotic cells (MDA MB 231 cells [5]): reduces the apoptosis

B2: FOG2[413-789]: The FOG2 protein comprising the amino acid sequence ranging 413-789th amino acid residues of FOG2 full-length amino acid sequence (protein, UniProt Q8WW38 413-789, looked up, fragment)
chain: DLLTRSELPQSQKAMQTKDASSDTELDKCEKKTQLFLTNQRPEIQPTTNKQSFSYTKIKSEPSSPRLASSPVQPNIGPSFPVGPFLSQFSFPQDITMVPQASEILAKMSELVHRRLRHGSSSYPPVIYSPLMPKGATCFECNITFNNLDNYLVHKKHYCSSRWQQMAKSPEFPSVSEKMPEALSPNTGQTSINLLNPAAHSADPENPLLQTSCINSSTVLDLIGPNGKGHDKDFSTQTKKLSTSSNNDDKINGKPVDVKNPSVPLVDGESDPNKTTCEACNITFSRHETYMVHKQYYCATRHDPPLKRSASNKVPAMQRTMRTRKRRKMYEMCLPEQEQRPPLVQQRFLDVANLNNPCTSTQEPTEGLGECYHPRCD
number of apoptotic cells (MDA MB 231 cells [5]): increased

Second part, led by results:

IGF-1-induced PI3K activation (PI3K [2]): did not inhibit
Molecule: ZF-3-wt-21: The peptide not comprising the fifth zinc finger domain of FOG2 (LKCTVCSYTADSVINFHQHLF) [reference compound]
reduction of cell migration (MDA MB 231 cells [1]): not observed

inhibition of PI3K activity (PI3K [3]; MDA MB 231 cells, 4 μM peptide, 48 hr, relative to ZF-5-wt-24, FIG. 5B): approximately 30%
PI3K activity (PI3K [3]; synthesized peptides, FIG. 5): does not affect
IGF-1-induced PI3K activation (PI3K [2]): did not inhibit
Molecule: ZF-5-m-24: FOG2 mutant peptide with altered fifth zinc finger domain (24 amino acids) (CFECNITFNNLDNYLYLVAKKAYC)
reduction of cell migration (MDA MB 231 cells [1]): not observed
inhibitory effect on cell proliferation (MDA MB 231 cells [4]): does not

Reference: patent US20130116185A1, “PHOSPHATIDYLINOSITOL 3-KINASES ACTIVITY REGULATOR INCLUDING THE FIFTH ZINC FINGER DOMAIN OF FOG2” (SNU R&DB FOUNDATION, priority 2010, published 2013)
